From the nanobody polyreactivity screen of Harvey et al. (2022)

Assay: yeast display, Sf9 membrane polyspecificity reagent, FACS + sequencing; frameworks hold sequencing errors
Outline: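 Using colony PCR, genes from sorted yeast display clones were amplified, then sequenced on MiSeq at 2 × 250 and filtered by CDR length. The clones had been stained with 10% biotinylated, detergent-solubilized Sf9 membrane reagent for 1 hour at 4 °C and sorted by FACS into low and high (top ~1%) gates on anti-HA and streptavidin fluorescence. Polyreactivity labels come from the gate of origin.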

Sequence | polyreactivity (PSR sort gate)
QVHLVESGGGLVQSGGSLRLRCAASGSTFYGYTKAWYRQAPGKERELVAAINWSGTRTYYADSVNGRFTISRDTAKNTVYLQMNSLKPEDTAVYYCAAERYYWGLGTQVTVSS | high polyreactivity
QVHLVESGGGLVQSRGSLRLSCAASGNIFGNNAMGWYRLAPGKERELVAAISSSGTSTYYADSVKGRFTISRDNAKNTVYLQMNSLKPEDTEVYYCNADPLPYDGYYDYDYWGQGTQVTVSS | low polyreactivity
QVHLVESGGRLVQAGVSLRLSCAASGRIFSNYAMGWYIQAPGKERELVAAISRGGGRTFYADSVKGRFTISRDNAKNTVYLQMNSLKPEDTAVYYCATRSYYVKGDYWGQGTQVTVSS | high polyreactivity
QVHLVESGGVLVQAGGRLRLSCAAYGNIIGFNAMGWYRQAPGTERELVAAINSGGSTYYPDSVKGRFTISRDNAKNSVYLQMNSLKPEDSAVYYCAARVRIRGGGYDDWGQGTQVTVSS | high polyreactivity
QVHLVESGGVLVQAGGSLLLSCGACGSIFAQYTMGWYRNAPGKDRELVAAISSSGGSTYYADSVKGRFTISRDNANNTFYLQMNSLKAEDTAVYYCAARGAHYLRSGDHWGQGTQVNVSS | low polyreactivity
QVHLVESGGVLVQAGGSLRLSCAASGSIYESYVMGWYRQAPRKERELVASISSGGSTYYADSVKGRFTISRDNAKNTVYFQNNSLKQEDTAGYYCAANYDGGYLDYEAGYRLEYDFWGQGTQVTVSS | low polyreactivity
QVHLVESGRGLVQAGGSLSVTCSASGFTFYWYTMGWYRRAPGKERELVAAISRRGGSTSYADSVKGRFTISRDNAKNTVYLKMKILKPDDTAVYYCAKTPGWTDYDYWGQGTQVTVSS | high polyreactivity
QVHLVESGVGLDQAGGSLRLSCASTGYIFETYAMGWYRPATGKERELVAAISRGASTYYADSVKGRFTISRDNAQNTVSLQLNSLKQEDTAVYYCAPTRRSWHRYGYWGQGTQVTVSS | low polyreactivity
QVHLVESGVGLVQAGCSLRLSCAASGIIFLTNAMGWYRQAPGKERELVAAITAIGGSTYYADSVKGRFTISRDNAKNTVYLQINSLKPEDTAVYYCAADFSYVYYLYDYWGQGTQVTVSS | low polyreactivity
QVHLVESGVGLVQAGGSLRLSCAASGYIFPYYTMGWYRQAPGKERELVAAITIGGSTYYADSVKGRFTISRDNAKNTVYLQMNSLKPEDTAVYYCAARSRYYDTRFDYWGQGTQVTVSS | low polyreactivity
QVHLVESRGGLVQAGGSLRLSCAASGYTFGHYALGWYRHAPGKERELVAVITSGGSTNYADSEKGRFTISRDNAKNNVYLQMKSLKPEETAVYYCAADLYFYYVWLRDYWGQGTQVTVSS | low polyreactivity
QVHLVESRGGLVQAGGSLRLSCAASVFTFRYYAMGWYRQAPGKERELVAAITSDGITNYADSVKGRFTISRDNAKNTVYLQMNSLKPEDTAVYYCAAVGWFYGIRLEYWGQGTQLTVSS | high polyreactivity
QVHLVESVGGLFQAGGSLRLSCDASGRTFPINAMGWYRQAPGKERELVARISRTSGSTYYADSVKGRFTISRDNAKNTVYLQMNSLNPEDTAVYYCAAVRDKYFRARYGYWGQGTQVTVSS | high polyreactivity
QVHLVESVGGLVQAGGSLRLSCAASGRIIYTYAMGWYIQAPGKERELVAAISWSGGSTYYADSVKGRFTISRDNAKNTVYLQMNSLKPEDTAVYYCNAAYYGYENLSKRGYWGQGTQVTVSS | high polyreactivity
QVHLVESVGGLVQAGGSLRLSCAASGRTFHYYAMGWYRQAPGKERELVAGITGGGSTYYADSVKGRFTISRDNAKNTVYLQMNSLKPEDTAVYYCAADRSYYGYGYWGQGTQVTVSS | low polyreactivity
QVHLVESVGGLVQAGGSLRLSCAASGSIFLRYGMGWYRQAPGKERELVASISSSGGSTYYADSVKGRFTISRDNAKNTVYLQMNSLKPEDTAVYYCAADVPGARVSYWTSSGWHYDYCGQGTQVTVSS | high polyreactivity
